The record followed here is paper PMC4620603.

The target in this assay is pyrene-labeled tropomyosin from bovine cardiac tissue (bovine) (UniProt Q5KR49). Put plainly: other fluorescence titration; troponin complex binding to 100 nM pyrene-tropomyosin, 23 °C, 20 mM Hepes pH 7.5, 100 mM KCl, 2 mM MgCl2, 1 mM DTT.

As to “human adult cardiac troponin complex, wild type (troponin T, troponin I, troponin C) (from UniProt P45379-6 1-288; P19429 1-210; P02585 1-160)”, the Kd was 68 nM. The figure for “human adult cardiac troponin complex with R205Q troponin T (from UniProt P45379-6 1-288; P19429 1-210; P02585 1-160)” is 48 nM.

Usually Kd stands for the constant that tells how readily two partners part at equilibrium. Read a low Kd as tighter binding.
